{"source": "patent US20260159592A1", "about": "“COMPOSITIONS AND METHODS FOR TARGETING AND KILLING ALPHA-V BETA-3 -POSITIVE CANCER STEM CELLS (CSCS) AND TREATING DRUG RESISTANT AND METASTATIC CANCERS” (The Regents of the University of California, priority 2019, published 2026)", "origin": "cited, not measured here", "molecules": {"B1": {"name": "LM609: murine monoclonal antibody specific for the integrin αvβ3 (antibody, V domains shown)", "VH": "EVQLVESGGGLVKPGRSLRLSCAASGFAFSSYDMSWVRQIPEKRLEWVAKVSSGGGSTYYLDTVQGRFTISRDNAKNTLYLQMSSLNSEDTAMYYCARHNYGSFAYWGQGTLVTVSA", "VL": "DIVLTQSPATLSVTPGDSVSLSCQASQSISNHLHWYQQKSHESPRLLIKYRSQSISGIPSRFSGSGSGTDFALSINSVETEDFGMYFCQQSGSWPHTFGGGTKLEIK"}}, "key": {"M21 cells": {"system": "M21 cells", "conditions": "ligands such as vitronectin, fibrinogen and von Willebrand factor; Cheresh and Spiro"}, "αvβ3 [1]": {"biological_target": "T1, αvβ3 (Homo sapiens, UniProt P05106+P06756)", "T1 sequence (P06756 31-889 limits assumed)": "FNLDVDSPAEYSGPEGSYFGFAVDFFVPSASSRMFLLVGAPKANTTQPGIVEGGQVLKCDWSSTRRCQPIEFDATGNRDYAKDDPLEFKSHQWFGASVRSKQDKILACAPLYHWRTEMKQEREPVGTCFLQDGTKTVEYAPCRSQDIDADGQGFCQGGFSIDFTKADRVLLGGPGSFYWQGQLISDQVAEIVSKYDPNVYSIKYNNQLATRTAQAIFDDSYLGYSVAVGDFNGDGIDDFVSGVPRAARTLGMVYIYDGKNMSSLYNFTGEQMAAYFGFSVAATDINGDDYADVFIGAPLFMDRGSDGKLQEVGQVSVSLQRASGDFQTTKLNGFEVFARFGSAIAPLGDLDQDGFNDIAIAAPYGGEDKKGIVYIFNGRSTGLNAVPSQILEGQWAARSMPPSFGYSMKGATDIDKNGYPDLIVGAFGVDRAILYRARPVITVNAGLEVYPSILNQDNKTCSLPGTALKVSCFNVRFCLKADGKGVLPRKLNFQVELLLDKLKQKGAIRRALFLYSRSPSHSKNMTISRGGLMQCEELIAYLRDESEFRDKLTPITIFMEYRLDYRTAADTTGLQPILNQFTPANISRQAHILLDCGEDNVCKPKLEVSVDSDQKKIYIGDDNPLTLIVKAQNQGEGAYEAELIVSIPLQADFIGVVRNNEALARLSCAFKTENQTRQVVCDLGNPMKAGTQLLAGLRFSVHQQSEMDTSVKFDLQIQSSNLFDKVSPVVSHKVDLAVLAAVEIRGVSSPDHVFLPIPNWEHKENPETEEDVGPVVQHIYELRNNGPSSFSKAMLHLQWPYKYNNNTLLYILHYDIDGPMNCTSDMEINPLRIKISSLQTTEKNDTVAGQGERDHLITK", "T1 sequence (P06756 891-1048 limits assumed)": "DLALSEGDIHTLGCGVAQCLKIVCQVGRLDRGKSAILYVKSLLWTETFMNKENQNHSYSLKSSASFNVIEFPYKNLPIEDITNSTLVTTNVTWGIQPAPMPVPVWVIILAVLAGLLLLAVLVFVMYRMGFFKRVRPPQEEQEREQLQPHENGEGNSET", "T1 sequence (P05106 27-788)": "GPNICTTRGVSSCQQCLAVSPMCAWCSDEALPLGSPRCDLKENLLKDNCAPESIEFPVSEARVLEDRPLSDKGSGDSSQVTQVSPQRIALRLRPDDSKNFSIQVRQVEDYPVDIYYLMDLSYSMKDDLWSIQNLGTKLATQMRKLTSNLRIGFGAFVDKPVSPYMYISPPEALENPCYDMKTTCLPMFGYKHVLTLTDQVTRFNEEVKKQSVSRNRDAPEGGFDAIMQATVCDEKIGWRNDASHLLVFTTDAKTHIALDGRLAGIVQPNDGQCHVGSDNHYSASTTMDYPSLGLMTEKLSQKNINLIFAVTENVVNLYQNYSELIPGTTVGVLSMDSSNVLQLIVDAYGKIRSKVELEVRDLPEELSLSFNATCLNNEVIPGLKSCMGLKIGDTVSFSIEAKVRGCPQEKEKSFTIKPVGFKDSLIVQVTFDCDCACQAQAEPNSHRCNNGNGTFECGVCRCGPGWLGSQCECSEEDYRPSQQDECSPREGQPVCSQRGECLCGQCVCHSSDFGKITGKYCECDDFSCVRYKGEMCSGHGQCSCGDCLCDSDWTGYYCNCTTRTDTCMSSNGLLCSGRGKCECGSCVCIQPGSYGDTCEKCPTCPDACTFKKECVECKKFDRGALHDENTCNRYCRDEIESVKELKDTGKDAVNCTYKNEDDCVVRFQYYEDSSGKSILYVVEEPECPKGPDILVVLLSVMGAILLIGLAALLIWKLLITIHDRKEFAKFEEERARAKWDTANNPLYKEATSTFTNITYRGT", "conditions": "Brooks et al. Cell 79:1157-1164 (1994)"}, "αvβ3 [2]": {"biological_target": "T1, αvβ3", "conditions": "Clark et al., Am. J. Pathology 148:1407-1421 (1996)"}, "αvβ3 [3]": {"biological_target": "T1, αvβ3", "conditions": "Choi et al. (1994); Jones et al. (1996)"}}, "data": [{"molecule": "B1", "values": [{"measurement": "attachment of M21 cells to αvβ ligands", "setting": "M21 cells", "value": "inhibits"}, {"measurement": "tumor induced angiogenesis", "setting": "αvβ3 [1]", "value": "inhibitor"}, {"measurement": "granulation tissue development in cutaneous wound", "setting": "αvβ3 [2]", "value": "inhibitor"}, {"measurement": "smooth muscle cell migration such as that occurring during restenosis", "setting": "αvβ3 [3]", "value": "inhibitor"}]}]}
